Laboratory results taken from article doi:10.1101/2025.05.20.655035.
Like-named read-outs stand apart in the source and are kept apart here.

How the values were obtained:
[1] = molecular target: T1, His6-TCP4 (TCP4-His6) (Arabidopsis thaliana, UniProt Q8LPR5 1-420); assay: EMSA
T1 sequence: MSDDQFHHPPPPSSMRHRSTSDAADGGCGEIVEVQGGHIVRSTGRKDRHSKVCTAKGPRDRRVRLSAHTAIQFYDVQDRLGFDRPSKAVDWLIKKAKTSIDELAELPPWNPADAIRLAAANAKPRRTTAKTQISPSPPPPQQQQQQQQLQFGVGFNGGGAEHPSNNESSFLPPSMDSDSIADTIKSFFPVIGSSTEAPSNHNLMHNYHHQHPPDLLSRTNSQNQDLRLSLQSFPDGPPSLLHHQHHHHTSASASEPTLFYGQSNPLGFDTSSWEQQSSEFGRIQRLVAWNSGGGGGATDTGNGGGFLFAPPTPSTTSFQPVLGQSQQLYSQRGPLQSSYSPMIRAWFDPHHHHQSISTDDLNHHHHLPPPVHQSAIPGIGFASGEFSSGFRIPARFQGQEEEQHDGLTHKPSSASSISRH

[2] = molecular target: T1, His6-TCP4 (TCP4-His6); assay: EMSA; remark: listed apart in the source

Binder	binding result [1]	binding result [2]
BS2 (dsDNA) DNA 1: GTGATGTTAAAATGGTCCTAAGTTGACATA DNA 2: TATGTCAACTTAGGACCATTTTAACATCAC	binds	–
BS3-4 (dsDNA) DNA 1: CAACACACAAATGTGGTCCATTTCTTTTTGTTCATGTGGTCCAATTTTGGTATAT DNA 2: ATATACCAAAATTGGACCACATGAACAAAAAGAAATGGACCACATTTGTGTGTTG	binds	–
BS1 (dsDNA) DNA 1: TCAATTCAACTAGGCCCAGTTTCCTCCTTC DNA 2: GAAGGAGGAAACTGGGCCTAGTTGAATTGA	–	no binding
BS5 (dsDNA) DNA 1: TTGCATATTGGTTGGTCCAAAAAGATCAAC DNA 2: GTTGATCTTTTTGGACCAACCAATATGCAA	–	no binding
